Test results as given in article PMC5041982 (2016).
Where no end group is shown, it is not given here. [ ]: non-standard residue; d: D form. pY = N[C@@H](Cc1ccc(OP(=O)(O)O)cc1)C(=O)O

Target: T1, EGFR pY1068 phosphododecapeptide dodecapeptide surrounding Y1068 (Homo sapiens, UniProt P00533)
T1 chain: LPVPE[pY]INQSVP
Test: microscale thermophoresis

B1: STAT3 127-722 (protein)
chain: GQANHPTAAVVTEKQQMLEQHLQDVRKRVQDLEQKMKVVENLQDDFDFNYKTLKSQGDMQDLNGNNQSVTRQKMQQLEQMLTALDQMRRSIVSELAGLLSAMEYVQKTLTDEELADWKRRQQIACIGGPPNICLDRLENWITSLAESQLQTRQQIKKLEELQQKVSYKGDPIVQHRPMLEERIVELFRNLMKSAFVVERQPCMPMHPDRPLVIKTGVQFTTKVRLLVKFPELNYQLKIKVCIDKDSGDVAALRGSRKFNILGTNTKVMNMEESNNGSLSAEFKHLTLREQRCGNGGRANCDASLIVTEELHLITFETEVYHQGLKIDLETHSLPVVVISNICQMPNAWASILWYNMLTNNPKNVNFFTKPPIGTWDQVAEVLSWQFSSTTKRGLSIEQLTTLAEKLLGPGVNYSGCQITWAKFCKENMAGKGFSFWVWLDNIIDLVKKYILALWNEGYIMGFISKERERAILSTKPPGTFLLRFSESSKEGGVTFTWVEKDISGKTQIQSVEPYTKQQLNNMSFAEIIMGYKIMDATNILVSPLVYLYPDIPKEEAFGKYCRPESQEHPEADPGSAAPYLKTKFICVTPTTCSNTI
  Kd: 1.1 nM
